Source: patent US20240336664A1, “SULFATED POLYPEPTIDES FOR SYSTEMIC DELIVERY” (priority 2021, published 2024)

System: C2C12 mouse myoblasts
Assay: Luciferase reporter expression from muscle promoters
Format: cell-based
Details: 48 hours post transfection, FIG. 6
Source text: The present Example includes the recognition that certain promoters utilized herein have advantageous characteristics for expression of operably linked coding sequences in muscle cells, as exemplified in the present Example in C2C12 mouse myoblasts as a representative muscle cell type. In the present Example, a luciferase reporter construct was expressed in C2C12 mouse myoblasts using each of three promoters. Cells were mock transfected or transfected with vectors expressing luciferase using Lipofectamine LTS Plus reagent in a 96-well plate. 48 hours post transfection luciferase activity was measured using ONE-Glo™ Luciferase Assay System (E6110, Promega).

B1: SEQ ID NO: 3: promoter nucleic acid sequence driving a luciferase expression construct in muscle cells (nucleic acid)
DNA: CAGGCCCTGTAACTTTTCCAATAAAATATTCTATTAGAAACAAGTTCCTTCTAGATCTTCCTAAAAGAATACTAAAGGACCAAACCGTGCAACAGCACTGGTGGTATTGTCTTAATTTAGAGAGTCCATACCAGTGATTCTCAAACATTAGTATGCTCAGAGTTTCTGGTTCAATAGGTCTGGGCCGGGCCCAGGGAATTTTCATTTCTAAGAAGTTCGCAGGTGATACTGATAACTGCTGTTCCCAGGGTCTACATTTTGAGATCCGCTGCTATGTCACAAATCCAAATCCAAAGTCTTTTTAACAATCCCTTTTAGCCCAGGATGAGCCTAACGGCAATTTCACGTCCTTATCGCCGGCCACTTTAATCTTCAACTGAGGAGGAAGGGAGAGTGAGAATTATGTATATAATTTTTTTCTTTTATTTTTTAAAAAGAAAACTCCAAGCCCACACTCTTAATTATCTGGGATGAGGTCATTTGCACCTGGGTCATTTATTTAGACAACAAGTAGTCTTGCTAGAGGCTTTAAGGAGGTGTTAGCAGAGCGGTGTGTGGCTTCCAGGTTCCTGGGTCTACCTTAAATCCCCATCCTCTTTCTTTCTTTCTTTCTTTCTTTCTTTCTCTTTTCTTTTTCCTTTCCGTTTTGAAAGCCCCAACTGCCCAGTCTCTGGGTGTCCGGGTTCCCAGGTCCCTAGGTGGGGGCGGAGCCCGACACGGCCCCGCCCCGTCTGCCCGCAGCGCCCCCTCCCCGGCCCGCCCGCGCCGGCTCCTCCGCAGTGCTTTCAGCTGTGAGCTTGGGCGGCGGCGGCGGCGGCGCTCCACTTTCGGGGAGCCCGGCGGCTCTGGGAAGCTCACTCCTCCACTCGTACCCACACTCGACCGCGGAGCCCTTGCAGCCATGAGGGAACAGCTCAAAGGGTAAGTGGA
- luciferase expression vs promoters SEQ ID NO: 4 and SEQ ID NO: 5 and mock: substantially greater expression
